{
  "source": "the DeepSol protein solubility set",
  "data": [
    {"experiment": "soluble on expression in E. coli; label from the status in PepcDB or PDB records", "values": [
      {"sequence": "MSLARSRARVETIAELERTNAALQQALDENAALHAQLLVQAREAGVADERRRLAAEIHDTLAQGLTGIIAQLQVVAAAPDPALGREHLDRALALARHSLGEARRSVHNLSPVALAEDGLPDALKKTVTEWGARTGVQARFTVTGTAEHLHDEVAATLLRIAQEALSNTARHAAADRVGVTLSYMGDEVTLDIRDDGRGFDPLTARECGPGGGFGLDGMRARAERIAGSLTVEAEPGHGTAVSARVPLVRHDREGHHHHHH", "soluble on expression in E. coli": "soluble"},
      {"sequence": "MGSDKIHHHHHHMPYDSTDREIMRFLQGDIPLESRPYKNLAERLELSEEEIVLRVKKLREKGFLRRMGAVLRHRQAGFAVNAMVAWKLENEEQADRAGKIMAGYKEISHCYIREVPPDFDYSIFSMIHVKNEERLAEIIEEISLQTGIGKYIIIRSSRELKKESMQYF", "soluble on expression in E. coli": "not soluble"},
      {"sequence": "GSMAWHLGIRSQSRPNDIMAEVCRAIKQLDYEWKVVNPYYLRVRRKNPVTSTFSKMSLQLYQVDSRTYLLDFRSIDDEITEAKSGTATPQRSGSISNYRSCQRSDSDAEAQGKPSEVSLTSSVTSLDSSPVDVAPRPGSHTIEFFEMCANLIKILAQ", "soluble on expression in E. coli": "soluble"},
      {"sequence": "MGSDKIHHHHHHMTEKFNRQRAENLIAIANQFAQLGKVTAVKAFGSGNINDTFLVTLDSSKEQHFVLQRINTQVFRQPKLIMQNMRTFTEHVHKRLQHTPLNRRWEVPRVLLTKDAQDHCQDSDGSFWRAISFIEGSQSFDTMRDRSQAKEIGYALGMFHNLISDLPPEKLADTLQGFHITPLYLQHYEEVLAKTSASQSSEVNYCLQFVSDRQAFAHILENAKAEGKLPLRLMHGDPKINNVMFDTVTQQAVSVIDLDTVKPGLVHYDIGDCLRSGCNQAGEETENWESVHFDPGLCQGILQGYLSVAKAFLTENDYAYIYDAIRLIAFELGLRFFADYLAGNVYFKVKHPEHNLARAIVQFKLTESIESQETQIRNIIKDMK", "soluble on expression in E. coli": "not soluble"},
      {"sequence": "SKDFMISAKGTFTYAKNQYMEIDEPDYEYAYMSQVGRPLNQYKGYIALGLFKDQEEIDNSPKQILTGVVQPGDIKYADLNNDGKIDGNDQTYIGNPELPQISYGLGVSIQYKKWDASIFFQGVGKRSIMLSDIHPFGGESYGVMQFVADNHWTEANPNPEAMYPRLTNGKNNNNNPNSTYWLRDGSYIRLKNVELGYSYKFLRAYISGQNLLTFSKFKLWDPELYTSNGLKYPTQIMGSIGLQFTF", "soluble on expression in E. coli": "not soluble"},
      {"sequence": "MAPRSILITGANRGIGLGLVKQFLKNEGIQLVIATCRNPSKADELNSIADSRLQIFPLEIDCDDSIKKLYENVDTLVGTDGLTVLINNAAICSVYEIEGQISRTYMRQQIETNSVSTAILTQNFIPLLKKASAKNGGEEYSTDRAAIVNISSGAASIGYIDDKQPGIYIAYRMSKSALNSFSKSCSVELAKYHILVTAMCPGWVKTDMGGENGWEEVDDATEKIMKSILKLGAAQHGAFINSSLEVYPN", "soluble on expression in E. coli": "not soluble"},
      {"sequence": "MKSQLRKKTLEALSALSNEDILQKTERMYKYLFSLPEWQNAGTIAVTISRGLEIPTRPVIEQAWEEGKQVCIPKCHPDTKKMQFRTYQTDDQLETVYAGLLEPVIEKTKEVNPSQIDLMIVPGVCFDVNGFRVGFGGGYYDRYLSEYEGKTVSLLLECQLFAHVPRLPHDIPVHKLITEDRIISCFSLEHHHHHH", "soluble on expression in E. coli": "soluble"},
      {"sequence": "MSETELVGKDELLKAMTMCNSCPDFNLNDLRGKGDNNYQLYDWLIHNLPTAQYVLGKLVELIFSNNLTTGDEKQDEILNNFLYGQTNPEGVTNYHVLVQSIKESIVYGRSGLRFLSKDDGLINVKCNHFGVAQILNKEHYGYKELIGFVIDKKGRAITDVDLREGEIDSEEYFKKGIFVFKNNDNILLPPEKFVNLRVDTSTPKGSSVFDSDIQRVLLIASVYKRLLYDIEYDGAGRLIFWADNANSNEESSNNFLNDTESATKRRQDKYKKEVEEIMKLVKDSNSTSVLAVSNAFKKMDHLPRVTKATEFLSYLNQEGEIMAQVFGVPNVLLGLGKISGNISMEKVIDNAMLNSIIPLRENIATQISSILTNNLKVPKVYFDKYELKSQSDINDRRLKVLTVAERLKALGKEDLANKIIEEEIQL", "soluble on expression in E. coli": "not soluble"},
      {"sequence": "MMMFLPPEVVREIHEERVKKALENLKAIELEKELLEKVVKEEKKVSSRRRRREKETVEV", "soluble on expression in E. coli": "not soluble"},
      {"sequence": "MSLKRDELKLDYQRHQFYEYFNSIFNYDILDASISENIYLLRKTTDKLFYIEFENQLFETVMFLSMKTLVLDINSFSKEIGNKSEAYEQYIQQIKEENGINNFFDRYPYLLKQINREVRLIEESYSLLFDRFLKDLSELRSCFNITEPLSNVEFSLGDSHSQKQTVVKIEFKGKSIYYKPKSYDSYNILLELISLLKSNNIPSFSLPESLIKADYCWQLGVDYINSNNDEVKRIYFKYGVLAAFSEIFSITDLHMENVIVSGGDLYLIDVETFFQRKLNVQTNNFEGITVDTYQRIYETSLSNGLFPVQFEKNSAPNISGISGKGGKRKKGKYELINKNRGDMKLVKTDYFQEDSYNIPTLNEKMVEPLDYANEVIAGFRECYTFLMTQRAKVKKILYGFPKLRTRAIFRNTSDYGKFLQASTNPKYLFSEKKRENLFSILYESKHIEQFIVDSEIKDLMNGDIPYFSMDPNGNVYNSLGTVIGNLGKTTSLFDNIATLNDERMKFTCELIGIVLKKPIKHWERKDGKSYYFPSISSKQSFNEEILRQREGHHHHHH", "soluble on expression in E. coli": "soluble"},
      {"sequence": "MLKEHSKKQHLRREVQEKLKNEAIVAAQTLSTAVVDHLNAKVAQAYGNQKRLDVEAKRFENNSAALAKQTEQWLFITEGLNYALKEIGDVENWSKTIENDMKIITETLRRAYEAKNPPLPPNQANPASH", "soluble on expression in E. coli": "not soluble"},
      {"sequence": "MGSDKIHHHHHHMKPEAYPHPVKVVELVETHISWVLLTGSYAYKLKKAVHLDFVDATTLKQRLHFCQEELRLNRRLAPDLYLGVTRILESVDGAKVLDENFELNDPSTKGVVDVAVKMRQFPVSRLLSVYLSDGVLKTESLKRLAFELAGFHLSVKTASADGDFGGFDAVINPVHANLRVLDQLTLTEPLELWLEEHRAWIKSIQPELAFRFKQRLNAGAIRECHGDLHVGNIHLNNDESLEVFDAIDFNPSLRWIDPISEMAFLVMDFEVHDHQGDAMVILNEWLEHTGDYKALDLWPWYSAYRALVRAKVSGLQWQQLCSQSQHHSVDQQHLQRLLKDLNLYIQRAREVQQTKSAGIVLMHGLSGSGKSFLSEQLYQQLPAVRLRSDIERQRAFGRRPLHKLLGFEKGSMTSVGIKPLFQGDPYRPEVTQWLFDQCLPALTQSCLSSGYTTIVDATFLRERERQRMFVLARQQGCPIAIVACECSDFTAQERIATRMGIGTDPSEADLSVRELQKAWIEPLTTDEQDLTVRFTEKTPISIGLERLRVLLNP", "soluble on expression in E. coli": "not soluble"},
      {"sequence": "MRISTLQGQYQCIIIDPPWFYRLRSKDKTHRNRIPYQPMRTPEILALPIPDLCDAGGCVLWLWFTNNHMIEAAQCLQRWGFDLKTILTWGKVTKDGTKTHLGVGHWLRNSTEHCALAVRGNVKAFAGQTSTTGGTPTLTNQSTILHSPRREHSRKPPEFFELVEKLCPDMTKLEIFARESRDGWDCWGDQADLFDASDEEILVKAEKVLLLEHHHHHH", "soluble on expression in E. coli": "not soluble"},
      {"sequence": "MGSDKIHHHHHHLYRIFRPIARFIVWVLNGHLHVHHKERLPEGTYILVAPHRNWWEPILFALAASPTEFMFMTKQELFKNPVLRWILNNAHAFPVNREHPSPSVIKIPVRGLKSEGLSLIMFPSGTRHSASLKSGALVIARMSGRPLLPAVYQGPLTFKGVLQRKGIEINFGNPIVIDRKTKLTPETEAAYNQQLEDAWKQIDQELDPDFHYEAK", "soluble on expression in E. coli": "not soluble"},
      {"sequence": "MPKKAGATSKGKNQTKEPETAPPAAGPVATDPKGFVTIAIHAKPGSRQNAVTDLSTEAVGVAIAAPPSEGEANAELCRYLSKVLDLRKSDVVLDKGGKSREKVVKLLASTTPEEVLEKLKTEAEKK", "soluble on expression in E. coli": "soluble"},
      {"sequence": "MAHHHHHHMFMCRVHARARYLYILQNGSVEEMTALLTKLRAAVPSERLIIEHRPQNIGYAAAVNEGYRVALQKPHAEVPFIGVFNCDVYFERRYFGRYIPVVYKMLAPDAARIRALEEVVEQEERAARAAGRQTLRASVATTPGLSISMLLPDRIRYSSFAEQQDEFKGHVGMFYYETKSMCAFLVSRLALLVGGFLDENFYPAYFEDYDWQFRLANLGFKTFTGSSAQFGGFFHRMGGNIRVINKGPAGKSISYDMAAIRVERMLNAKPGIDYGETKWAWHREALVAMSATPFPQLGFIVPLDVWVLDAARHQLIIDIGTGRRPSVEMSNTYNVSLLSSLRRFALADGKDFWGSGIITTEPDWRK", "soluble on expression in E. coli": "not soluble"},
      {"sequence": "MLALMDADGNIAWSGEYDEWGNQLNEENPHHLHQPYRLPGQQYDKESGLYYNRNRYYDPLQGRYITQDPIGLEGGWSLYAYPLNPVNGIDPLGLSPADVALIRRKDQLNHQRAWDILSDTYEDMKRLNLGGTDQFFHCMAFCRVSKLNDAGVSRSAKGLGYEKEIRDYGLNLFGMYGRKVKLSHSEMIEDNKKDLAVNDHGLTCPSTTDCSDRCSDYINPEHKKTIKALQDAGYLKLEHHHHHH", "soluble on expression in E. coli": "not soluble"},
      {"sequence": "LEQARTMSVDEMAANPEINRLMMARIEAAQDSLAAYEKVKYITLLAEPFTLEKGELTETMKLKRRVINEHYAEAIEKMYL", "soluble on expression in E. coli": "not soluble"},
      {"sequence": "REATWVTEKPLTLKIHMHFRDKWVWDENWPVAREVARLTNVKLVGVANRAATNSQEQFNLMMASGQLPDIVGGDNLKDKFIRYGMEGAFIPLNKLIDQNAPNLKAFFKTHPEVQRAITAPDGNIYYLPYVPDGLVSRGYFIRQDWLDKLHLKTPQTVDELYTVLKAFKEKDPNGNGKADEIPFINRDPEEVFRLVNFWGARSTGSNTWMDFYVENGKIKHPFAEVAFKDGIKHVAQWYKEGLIDPEIFTRKARSREQTFGNNIGGMTHDWFASTALFNDALSKNIPGFKLVPMAPPINSKGQRWEEDARQIPRPDGWAITATNKNPVETIKLFDFYFGPKGRELSNFGVPGLTYDIKNGKPVYKDTVLKAAQPVNNQMYDIGAQIPIGFWQDYEYERQWTNDVALQGIDMYIKNKYVLPQFTGVNLTVEEREIYDKYWPDVKTYMFEMGQSWVMGTKDPEKTWNDYQQQLKNRGFYQVMIVMQKAYDRQY", "soluble on expression in E. coli": "soluble"},
      {"sequence": "LDNPFYYLENFRQVLGWIAQRYDDLLDASERRFITEFAGLPMPAQGLLVRMVMRKGVMFRASKLSYAEIGDPHQAVLPLLQQDWVDTSPPLGLSELFQLLRRDELSQCFKAHAVKGPERKHEWLERLQPLYETAQPLEQWHPLLPDAVFGLKIMPLCDRLRLLYFGNLYQEWSEFVLADLGIYRYEKVEFSADSRGINQRDDINVCLQLHACREALETCVELHALAERAIAIECSNPWLNMRRAKLLYRIGQHAERLQDWPLALSVYRQSNYPGARSRQIRVLERNAEYTEAMALVEQAGLAPESDAEVQHLSRGTPRLQRKLGLTAARRPAARVVSRLDVQVTPSPGTSVERLIRLHLEEQQGGEVHYVENTLINSLFGLLCWRAIFAPLPGAFFHPFHSAPSDLYSPDFYQRRAALFDECLLQLESNDYRVTIREHFQSKSGLQSPFVFWGALTPQLLEQALHCLPADHLRLWFRRLLQDIKANRTGMPDLIQFFPEQRGYRMIEVKGPGDRLQDNQLRWLDFCAEHGMPVEVCYVQWA", "soluble on expression in E. coli": "not soluble"},
      {"sequence": "MANRTEKAAKTVKGTNPQFLVEKIIRQRIYDSMYWKEHCFALTAELVVDKGMDLRYIGGIYAGNIKPTPFLCLALKMLQIQPDKDIVLEFIQQEEFKYIRALGAMYLRLTFDSTEIYKYLEPLYNDFRKLRYMNKMGRFEAIYMDDFIDNLLREDRYCDIQLPRLQKRWALEEVDMLPSYKSLLDGDLVAMSDSDSEEEEVTKKEKPRLTSRRRSRSRDRERDVGDRREVREREKLKERRERGDDEPGPSSSGSGRRDDRDDRRRDRDRSRDRDRRDRRDDDRRDKKKESRRGGADNDEEREIAEANALRAKLGLAPLER", "soluble on expression in E. coli": "not soluble"},
      {"sequence": "MMKKDYRTQVIEDLKKQDKAKKVLRDEQLLEELIQLEAYQKAHVIATYLAFPFEFDTSLLIEQAQRDNKSIVVPKTYPQGKMIFVVYDEADLQITKFGLKEPRSEEALEKSAIDLIHVPGLAFNNEGYRIGFGAGYYDQYLADFQGDTVSTIYSFQKFTFEPSFFDIPVKEVLVSGDLLEHHHHHH", "soluble on expression in E. coli": "soluble"}
    ]}
  ]
}
